In US9402913B2, “Cyclosporine A steroid conjugates” (Allergan, Inc., priority 2013, dated 2016):

Test system: human recombinant carboxylesterases
Assay: In vitro metabolic stability in human recombinant carboxylesterases (rate of metabolite formation, LC-MS/MS)
Assay type: in vitro ADME
Settings: 1 μM test compound, 0.1 mg/mL human recombinant carboxylesterase mixture, pH=6.0, 37° C., triplicate
Method: In Vitro Metabolic Stability in Human Recombinant Carboxylesterases
Human recombinant carboxylesterases were purchased from a commercial vendor (BD Gentest™, Bedford, Mass.). All metabolic stability experiments were performed in triplicate in 96-well plate format. The final incubation mixture contained 1 μM test compound and 0.1 mg/mL human recombinant carboxylesterase mixture in a final volume of 0.5 mL 0.1M potassium phosphate buffer (pH=6.0). […] Following a pre-incubation at 37° C., test article was added to initiate the reaction. At designated time points (typically 120 minutes to capture the linear range of metabolite formation), 0.05 mL aliquots were removed from the incubation mixtures using a clean pipet tip and immediately placed in organic solvent to stop any esterase activity.
The samples were analyzed by liquid chromatography with mass spectrometry (LC-MS/MS) detection to determine the metabolite concentrations resulting from the metabolism of the hybrid compounds. Internal standards were used to compensate for variability from sample processing, chromatographic elution, mass spectrometer response and ion suppression by matrix components.

Row | SMILES | Rate of formation Metabolite 2 (Cyclosporine A) | Rate of formation Metabolite 1 (Prednisolone) | Rate of formation Metabolite 1 (Dexamethasone)
1 | C/C=C/C[C@@H](C)[C@@H](OC(=O)OCOC(=O)CCC(=O)OCCOCCOCCOCCOCCOC(=O)CCC(=O)OCC(=O)[C@@]1(O)CCC2C3CCC4=CC(=O)C=C[C@]4(C)C3[C@@H](O)C[C@@]21C)C1C(=O)NC(CC)C(=O)N(C)CC(=O)N(C)[C@@H](CC(C)C)C(=O)NC(C(C)C)C(=O)N(C)C(CC(C)C)C(=O)NC(C)C(=O)NC(C)C(=O)N(C)C(CC(C)C)C(=O)N(C)C(CC(C)C)C(=O)N(C)C(C(C)C)C(=O)N1C (relative stereo) [Compound 22] | 46.5 ± 3.16 nM/min/mg | 38.4 ± 3.32 nM/min/mg | –
2 | C/C=C/C[C@@H](C)[C@@H](OC(=O)OCOC(=O)CCC(=O)OCCOCCOCCOC(=O)CCC(=O)OCC(=O)[C@@]1(O)[C@H](C)CC2C3CCC4=CC(=O)C=C[C@]4(C)[C@@]3(F)[C@@H](O)C[C@@]21C)C1C(=O)NC(CC)C(=O)N(C)CC(=O)N(C)[C@@H](CC(C)C)C(=O)NC(C(C)C)C(=O)N(C)C(CC(C)C)C(=O)NC(C)C(=O)NC(C)C(=O)N(C)C(CC(C)C)C(=O)N(C)C(CC(C)C)C(=O)N(C)C(C(C)C)C(=O)N1C (relative stereo) [Compound 32] | 13.4 ± 1.31 nM/min/mg | – | 20.4 ± 3.18 nM/min/mg
3 | C/C=C/C[C@@H](C)[C@@H](OC(=O)OCOC(=O)CCC(=O)OCCOCCOCCOCCOC(=O)CCC(=O)OCC(=O)[C@@]1(O)[C@H](C)CC2C3CCC4=CC(=O)C=C[C@]4(C)[C@@]3(F)[C@@H](O)C[C@@]21C)C1C(=O)NC(CC)C(=O)N(C)CC(=O)N(C)[C@@H](CC(C)C)C(=O)NC(C(C)C)C(=O)N(C)C(CC(C)C)C(=O)NC(C)C(=O)NC(C)C(=O)N(C)C(CC(C)C)C(=O)N(C)C(CC(C)C)C(=O)N(C)C(C(C)C)C(=O)N1C (relative stereo) [Compound 20] | 13.9 ± 1.11 nM/min/mg | – | 12.0 ± 0.88 nM/min/mg
4 | C/C=C/C[C@@H](C)[C@@H](OC(=O)OCOC(=O)CCC(=O)OCCOCCOC(=O)CCC(=O)OCC(=O)[C@@]1(O)CCC2C3CCC4=CC(=O)C=C[C@]4(C)C3[C@@H](O)C[C@@]21C)C1C(=O)NC(CC)C(=O)N(C)CC(=O)N(C)[C@@H](CC(C)C)C(=O)NC(C(C)C)C(=O)N(C)C(CC(C)C)C(=O)NC(C)C(=O)NC(C)C(=O)N(C)C(CC(C)C)C(=O)N(C)C(CC(C)C)C(=O)N(C)C(C(C)C)C(=O)N1C (relative stereo) [Compound 21] | 21.6 ± 0.03 nM/min/mg | – | –
5 | C/C=C/C[C@@H](C)C(OC(=O)OCOC(=O)CCC(=O)OCCOCCOCCOC(=O)CCC(=O)OCC(=O)[C@@]1(O)CCC2C3CCC4=CC(=O)C=C[C@]4(C)C3[C@@H](O)C[C@@]21C)C1C(=O)NC(CC)C(=O)N(C)CC(=O)N(C)[C@@H](CC(C)C)C(=O)NC(C(C)C)C(=O)N(C)C(CC(C)C)C(=O)NC(C)C(=O)NC(C)C(=O)N(C)C(CC(C)C)C(=O)N(C)C(CC(C)C)C(=O)N(C)C(C(C)C)C(=O)N1C (relative stereo) [Compound 5] | 35.6 ± 0.63 nM/min/mg | 84.4 ± 7.52 nM/min/mg | –
6 | C/C=C/C[C@@H](C)C(OC(=O)CN(C)C(=O)CNC(=O)OCOC(=O)CCC(=O)OCC(=O)[C@@]1(O)CCC2C3CCC4=CC(=O)C=C[C@]4(C)C3[C@@H](O)C[C@@]21C)C1C(=O)NC(CC)C(=O)N(C)CC(=O)N(C)[C@@H](CC(C)C)C(=O)NC(C(C)C)C(=O)N(C)C(CC(C)C)C(=O)NC(C)C(=O)N[C@@H](C)C(=O)N(C)[C@@H](CC(C)C)C(=O)N(C)C(CC(C)C)C(=O)N(C)C(C(C)C)C(=O)N1C (relative stereo) [Compound 7] | 1.31 ± 0.18 nM/min/mg | 4.26 ± 1.31 nM/min/mg | –
7 | C/C=C/C[C@@H](C)[C@@H](OC(=O)OCOC(=O)CCC(=O)OCCOCCOCCOCCOC(=O)CCC(=O)OCC(=O)[C@@]1(O)CCC2C3CCC4=CC(=O)C=C[C@]4(C)C3[C@@H](O)C[C@@]21C)C1C(=O)NC(CC)C(=O)N(C)CC(=O)N(C)[C@@H](CC(C)C)C(=O)NC(C(C)C)C(=O)N(C)C(CC(C)C)C(=O)NC(C)C(=O)NC(C)C(=O)N(C)C(CC(C)C)C(=O)N(C)C(CC(C)C)C(=O)N(C)C(C(C)C)C(=O)N1C (relative stereo) [Compound 6] | 34.4 ± 3.85 nM/min/mg | – | –
